US20180030151A1
Read-outs that look alike come from different tables or passages of the source.

Assays:
[1] = target: recombinant human TFPI (tissue factor pathway inhibitor) (human) (UniProt P10646)
[2] = target: recombinant human TFPI (tissue factor pathway inhibitor) (human) (UniProt P10646); remark: listed apart in the source
[3] = target: recombinant human TFPI (tissue factor pathway inhibitor) (human) (UniProt P10646); assay: cell-based or functional assay
[4] = target: recombinant human TFPI (tissue factor pathway inhibitor) (human) (UniProt P10646); assay: cell-based or functional assay; remark: listed apart in the source
[5] = target: recombinant human TFPI (tissue factor pathway inhibitor) (human) (UniProt P10646); remark: listed apart in the source
[6] = target: recombinant human TFPI (tissue factor pathway inhibitor) (human) (UniProt P10646); assay: cell-based or functional assay; remark: listed apart in the source
[7] = target: recombinant human TFPI (tissue factor pathway inhibitor) (human) (UniProt P10646); remark: listed apart in the source
[8] = target: recombinant human TFPI (tissue factor pathway inhibitor) (human) (UniProt P10646); remark: listed apart in the source
[9] = target: recombinant human TFPI (tissue factor pathway inhibitor) (human) (UniProt P10646); remark: listed apart in the source
[10] = target: recombinant human TFPI (tissue factor pathway inhibitor) (human) (UniProt P10646); assay: cell-based or functional assay; remark: listed apart in the source

B1: mAb2021 (anti-TFPI Ab, Novo Nordisk) (antibody, from another filing, V domains shown)
VH: EVQLVESGGGLVKPGGSLRLSCAASGFTFSNYAMSWVRQTPEKRLEWVATISRSGSYSYFPDSVQGRFTISRDNAKNSLYLQMNSLRAEDTAVYYCARLGGYDEGDAMDSWGQGTTVTVSS
VL: DIVMTQTPLSLSVTPGQPASISCKSSQSLLESDGKTYLNWYLQKPGQSPQLLIYLVSILDSGVPDRFSGSGSGTDFTLKISRVEAEDVGVYYCLQATHFPQTFGGGTKVEIKR
**Q.** What does the source list for B1?
**A.** FXa assay % of FXa alone, 2.5 nM Ab, 10 nM TFPI [1]: 8.7%; FXa assay % of FXa alone, 5 nM Ab, 10 nM TFPI [1]: 33.6%; FXa assay % of FXa alone, 10 nM Ab, 10 nM TFPI [1]: 92.4%; FXa assay % of FXa alone, 20 nM Ab, 10 nM TFPI [1]: 91.4%; FXa assay OD, 2.5 nM Ab, 10 nM TFPI [1]: 0.071; FXa assay OD, 5 nM Ab, 10 nM TFPI [1]: 0.273; FXa assay OD, 10 nM Ab, 10 nM TFPI [1]: 0.75; FXa assay OD, 20 nM Ab, 10 nM TFPI [1]: 0.742; FXa assay % of FXa alone, 2.5 nM Ab, 10 nM TFPI [2]: 6.6%; FXa assay % of FXa alone, 5 nM Ab, 10 nM TFPI [2]: 35%; FXa assay % of FXa alone, 10 nM Ab, 10 nM TFPI [2]: 98.5%; FXa assay % of FXa alone, 20 nM Ab, 10 nM TFPI [2]: 85.8%; FXa assay OD, 2.5 nM Ab, 10 nM TFPI [2]: 0.032; FXa assay OD, 5 nM Ab, 10 nM TFPI [2]: 0.17; FXa assay OD, 10 nM Ab, 10 nM TFPI [2]: 0.476; FXa assay OD, 20 nM Ab, 10 nM TFPI [2]: 0.415; A405, TF/FVIIa/FX complex assay, Ab 1.56 nM [3]: 0.137; A405, TF/FVIIa/FX complex assay, Ab 3.13 nM [3]: 0.143; A405, TF/FVIIa/FX complex assay, Ab 6.25 nM [3]: 0.156; A405, TF/FVIIa/FX complex assay, Ab 12.5 nM [3]: 0.241; A405, TF/FVIIa/FX complex assay, Ab 25 nM [3]: 0.932; A405, TF/FVIIa/FX complex assay, Ab 50 nM [3]: 0.953; A405, TF/FVIIa/FX complex assay, Ab 100 nM [3]: 0.952; % of Normalized, TF/FVIIa/FX complex assay, Ab 1.56 nM [4]: 15.8%; % of Normalized, TF/FVIIa/FX complex assay, Ab 3.13 nM [4]: 17.9%; % of Normalized, TF/FVIIa/FX complex assay, Ab 6.25 nM [4]: 18.8%; % of Normalized, TF/FVIIa/FX complex assay, Ab 12.5 nM [4]: 24.4%; % of Normalized, TF/FVIIa/FX complex assay, Ab 25 nM [4]: 100%; % of Normalized, TF/FVIIa/FX complex assay, Ab 50 nM [4]: 99.6%; % of Normalized, TF/FVIIa/FX complex assay, Ab 100 nM [4]: 101%; FXa assay % of FXa alone, 2.5 nM Ab, 10 nM TFPI [5]: 8.5%; FXa assay % of FXa alone, 5 nM Ab, 10 nM TFPI [5]: 66.6%; FXa assay % of FXa alone, 10 nM Ab, 10 nM TFPI [5]: 92.3%; FXa assay % of FXa alone, 20 nM Ab, 10 nM TFPI [5]: 87.6%; FXa assay OD, 2.5 nM Ab, 10 nM TFPI [5]: 0.07; FXa assay OD, 5 nM Ab, 10 nM TFPI [5]: 0.55; FXa assay OD, 10 nM Ab, 10 nM TFPI [5]: 0.763; FXa assay OD, 20 nM Ab, 10 nM TFPI [5]: 0.724; % of Normalized, TF/FVIIa/FX complex assay, Ab 1.56 nM [6]: 5.2%; % of Normalized, TF/FVIIa/FX complex assay, Ab 3.13 nM [6]: 5.4%; % of Normalized, TF/FVIIa/FX complex assay, Ab 6.25 nM [6]: 7.3%; % of Normalized, TF/FVIIa/FX complex assay, Ab 12.5 nM [6]: 12.4%; % of Normalized, TF/FVIIa/FX complex assay, Ab 25 nM [6]: 54.4%; % of Normalized, TF/FVIIa/FX complex assay, Ab 50 nM [6]: 86.1%; % of Normalized, TF/FVIIa/FX complex assay, Ab 100 nM [6]: 100%; FXa assay % of FXa alone, 2.5 nM Ab, 10 nM TFPI [7]: 8.4%; FXa assay % of FXa alone, 5 nM Ab, 10 nM TFPI [7]: 21%; FXa assay % of FXa alone, 10 nM Ab, 10 nM TFPI [7]: 90.7%; FXa assay % of FXa alone, 20 nM Ab, 10 nM TFPI [7]: 95.2%; FXa assay OD, 2.5 nM Ab, 10 nM TFPI [7]: 0.101; FXa assay OD, 5 nM Ab, 10 nM TFPI [7]: 0.249; FXa assay OD, 10 nM Ab, 10 nM TFPI [7]: 1.08; FXa assay OD, 20 nM Ab, 10 nM TFPI [7]: 1.13; FXa assay % of FXa alone, 2.5 nM Ab, 10 nM TFPI [8]: 9%; FXa assay % of FXa alone, 5 nM Ab, 10 nM TFPI [8]: 61.3%; FXa assay % of FXa alone, 10 nM Ab, 10 nM TFPI [8]: 97.4%; FXa assay % of FXa alone, 20 nM Ab, 10 nM TFPI [8]: 93.6%; FXa assay OD, 2.5 nM Ab, 10 nM TFPI [8]: 0.065; FXa assay OD, 5 nM Ab, 10 nM TFPI [8]: 0.441; FXa assay OD, 10 nM Ab, 10 nM TFPI [8]: 0.701; FXa assay OD, 20 nM Ab, 10 nM TFPI [8]: 0.673; FXa assay % of FXa alone, 2.5 nM Ab, 10 nM TFPI [9]: 9.2%; FXa assay % of FXa alone, 5 nM Ab, 10 nM TFPI [9]: 87%; FXa assay % of FXa alone, 10 nM Ab, 10 nM TFPI [9]: 95.7%; FXa assay % of FXa alone, 20 nM Ab, 10 nM TFPI [9]: 98.3%; FXa assay OD, 2.5 nM Ab, 10 nM TFPI [9]: 0.0745; FXa assay OD, 5 nM Ab, 10 nM TFPI [9]: 0.702; FXa assay OD, 10 nM Ab, 10 nM TFPI [9]: 0.772; FXa assay OD, 20 nM Ab, 10 nM TFPI [9]: 0.793; % of Normalized, TF/FVIIa/FX complex assay (FX 5 nM), Ab 1.56 nM [10]: 5.3%
